According to patent US20140274782A1, “AFFINITY REAGENTS AND METHODS FOR DETECTION, PURIFICATION, AND PROTEOMIC ANALYSIS OF METHYLATED PROTEINS” (The Board of Trustees of the Leland Stanford Junior …, priority 2013, published 2014):

B1: SEC23A (protein, UniProt Q15436 2-765, looked up)
Protein transport protein …: TTYLEFIQQNEERDGVRFSWNVWPSSRLEATRMVVPVAALFTPLKERPDLPPIQYEPVLCSRTTCRAVLNPLCQVDYRAKLWACNFCYQRNQFPPSYAGISELNQPAELLPQFSSIEYVVLRGPQMPLIFLYVVDTCMEDEDLQALKESMQMSLSLLPPTALVGLITFGRMVQVHELGCEGISKSYVFRGTKDLSAKQLQEMLGLSKVPLTQATRGPQVQQPPPSNRFLQPVQKIDMNLTDLLGELQRDPWPVPQGKRPLRSSGVALSIAVGLLECTFPNTGARIMMFIGGPATQGPGMVVGDELKTPIRSWHDIDKDNAKYVKKGTKHFEALANRAATTGHVIDIYACALDQTGLLEMKCCPNLTGGYMVMGDSFNTSLFKQTFQRVFTKDMHGQFKMGFGGTLEIKTSREIKISGAIGPCVSLNSKGPCVSENEIGTGGTCQWKICGLSPTTTLAIYFEVVNQHNAPIPQGGRGAIQFVTQYQHSSGQRRIRVTTIARNWADAQTQIQNIAASFDQEAAAILMARLAIYRAETEEGPDVLRWLDRQLIRLCQKFGEYHKDDPSSFRFSETFSLYPQFMFHLRRSSFLQVFNNSPDESSYYRHHFMRQDLTQSLIMIQPILYAYSFSGPPEPVLLDSSSILADRILLMDTFFQILIYHGETIAQWRKSGYQDMPEYENFRHLLQAPVDDAQEILHSRFPMPRYIDTEHGGSQARFLLSKVNPSQTHNNMYAWGQESGAPILTDDVSLQVFMDHLKKLAVSSAA
B2: MCM5 (protein, UniProt P33992 2-734, looked up)
DNA replication licensing …: SGFDDPGIFYSDSFGGDAQADEGQARKSQLQRRFKEFLRQYRVGTDRTGFTFKYRDELKRHYNLGEYWIEVEMEDLASFDEDLADYLYKQPAEHLQLLEEAAKEVADEVTRPRPSGEEVLQDIQVMLKSDASPSSIRSLKSDMMSHLVKIPGIIIAASAVRAKATRISIQCRSCRNTLTNIAMRPGLEGYALPRKCNTDQAGRPKCPLDPYFIMPDKCKCVDFQTLKLQELPDAVPHGEMPRHMQLYCDRYLCDKVVPGNRVTIMGIYSIKKFGLTTSRGRDRVGVGIRSSYIRVLGIQVDTDGSGRSFAGAVSPQEEEEFRRLAALPNVYEVISKSIAPSIFGGTDMKKAIACLLFGGSRKRLPDGLTRRGDINLLMLGDPGTAKSQLLKFVEKCSPIGVYTSGKGSSAAGLTASVMRDPSSRNFIMEGGAMVLADGGVVCIDEFDKMREDDRVAIHEAMEQQTISIAKAGITTTLNSRCSVLAAANSVFGRWDETKGEDNIDFMPTILSRFDMIFIVKDEHNEERDVMLAKHVITLHVSALTQTQAVEGEIDLAKLKKFIAYCRVKCGPRLSAEAAEKLKNRYIIMRSGARQHERDSDRRSSIPITVRQLEAIVRIAEALSKMKLQPFATEADVEEALRLFQVSTLDAALSGTLSGVEGFTSQEDQEMLSRIEKQLKRRFAIGSQVSEHSIIKDFTKQKYPEHAIHKVLQLMLRRGEIQHRMQRKVLYRLK
B3: GAPDHS (protein, UniProt O14556 1-408, looked up)
Glyceraldehyde-3-phosphate …: MSKRDIVLTNVTVVQLLRQPCPVTRAPPPPEPKAEVEPQPQPEPTPVREEIKPPPPPLPPHPATPPPKMVSVARELTVGINGFGRIGRLVLRACMEKGVKVVAVNDPFIDPEYMVYMFKYDSTHGRYKGSVEFRNGQLVVDNHEISVYQCKEPKQIPWRAVGSPYVVESTGVYLSIQAASDHISAGAQRVVISAPSPDAPMFVMGVNENDYNPGSMNIVSNASCTTNCLAPLAKVIHERFGIVEGLMTTVHSYTATQKTVDGPSRKAWRDGRGAHQNIIPASTGAAKAVTKVIPELKGKLTGMAFRVPTPDVSVVDLTCRLAQPAPYSAIKEAVKAAAKGPMAGILAYTEDEVVSTDFLGDTHSSIFDAKAGIALNDNFVKLISWYDNEYGYSHRVVDLLRYMFSRDK
B4: PRMT3 (protein, UniProt O60678 2-531, looked up)
Protein arginine …: CSLASGATGGRGAVENEEDLPELSDSGDEAAWEDEDDADLPHGKQQTPCLFCNRLFTSAEETFSHCKSEHQFNIDSMVHKHGLEFYGYIKLINFIRLKNPTVEYMNSIYNPVPWEKEEYLKPVLEDDLLLQFDVEDLYEPVSVPFSYPNGLSENTSVVEKLKHMEARALSAEAALARAREDLQKMKQFAQDFVMHTDVRTCSSSTSVIADLQEDEDGVYFSSYGHYGIHEEMLKDKIRTESYRDFIYQNPHIFKDKVVLDVGCGTGILSMFAAKAGAKKVLGVDQSEILYQAMDIIRLNKLEDTITLIKGKIEEVHLPVEKVDVIISEWMGYFLLFESMLDSVLYAKNKYLAKGGSVYPDICTISLVAVSDVNKHADRIAFWDDVYGFKMSCMKKAVIPEAVVEVLDPKTLISEPCGIKHIDCHTTSISDLEFSSDFTLKITRTSMCTAIAGYFDIYFEKNCHNRVVFSTGPQSTKTHWKQTVFLLEKPFSVKAGEALKGKVTVHKNKKDPRSLTVTLTLNNSTQTYGLQ

Legend:
3×MBT domain of L3MBTL1 = experiment: Triple SILAC pull-down, 3xMBT/3xMBTD355N ratio (cytoplasmic, nuclear and chromatin fractions of 293T cells); type: binding, human; details: for 3xMBT/D355N UNC Heavy: experiment with UNC0638 in heavy SILAC media; for 3xMBT/D355N UNC Light: experiment with UNC0638 in light SILAC media;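 on all read-outs here: proteins quantified with MaxQuant, requiring at least two unique peptides and quantification in both label directions, normalized to the mean of proteins from a digested loading control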
G9a and GLP = target: T1, G9a and GLP (Homo sapiens, UniProt Q96KQ7+Q9H9B1); experiment: Triple SILAC pull-down after UNC0638 treatment of 293T cells, DMSO/UNC0638 ratio of protein captured by 3×MBT; type: cell-based; parameters: cells were treated for 24 hours with UNC0638 at 2.5 μM or DMSO vehicle control; endogenous in cells; host or cells: HEK 293T; details: for Relative to UNC0638 UNC Heavy: UNC0638 in heavy SILAC media; for Relative to UNC0638 UNC Light: UNC0638 in light SILAC media; for Relative to UNC0638 Average: average of UNC Light and UNC Heavy experiments;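 on all read-outs here: mass spectrometry (Q-Exactive) SILAC quantitation, DMSO/UNC0638 ratio computed after subtracting 3×MBTD355N mutant pull-down background, only proteins with at least twofold 3×MBT over mutant signal considered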
T1 sequence (Q96KQ7 2-1210 limits assumed): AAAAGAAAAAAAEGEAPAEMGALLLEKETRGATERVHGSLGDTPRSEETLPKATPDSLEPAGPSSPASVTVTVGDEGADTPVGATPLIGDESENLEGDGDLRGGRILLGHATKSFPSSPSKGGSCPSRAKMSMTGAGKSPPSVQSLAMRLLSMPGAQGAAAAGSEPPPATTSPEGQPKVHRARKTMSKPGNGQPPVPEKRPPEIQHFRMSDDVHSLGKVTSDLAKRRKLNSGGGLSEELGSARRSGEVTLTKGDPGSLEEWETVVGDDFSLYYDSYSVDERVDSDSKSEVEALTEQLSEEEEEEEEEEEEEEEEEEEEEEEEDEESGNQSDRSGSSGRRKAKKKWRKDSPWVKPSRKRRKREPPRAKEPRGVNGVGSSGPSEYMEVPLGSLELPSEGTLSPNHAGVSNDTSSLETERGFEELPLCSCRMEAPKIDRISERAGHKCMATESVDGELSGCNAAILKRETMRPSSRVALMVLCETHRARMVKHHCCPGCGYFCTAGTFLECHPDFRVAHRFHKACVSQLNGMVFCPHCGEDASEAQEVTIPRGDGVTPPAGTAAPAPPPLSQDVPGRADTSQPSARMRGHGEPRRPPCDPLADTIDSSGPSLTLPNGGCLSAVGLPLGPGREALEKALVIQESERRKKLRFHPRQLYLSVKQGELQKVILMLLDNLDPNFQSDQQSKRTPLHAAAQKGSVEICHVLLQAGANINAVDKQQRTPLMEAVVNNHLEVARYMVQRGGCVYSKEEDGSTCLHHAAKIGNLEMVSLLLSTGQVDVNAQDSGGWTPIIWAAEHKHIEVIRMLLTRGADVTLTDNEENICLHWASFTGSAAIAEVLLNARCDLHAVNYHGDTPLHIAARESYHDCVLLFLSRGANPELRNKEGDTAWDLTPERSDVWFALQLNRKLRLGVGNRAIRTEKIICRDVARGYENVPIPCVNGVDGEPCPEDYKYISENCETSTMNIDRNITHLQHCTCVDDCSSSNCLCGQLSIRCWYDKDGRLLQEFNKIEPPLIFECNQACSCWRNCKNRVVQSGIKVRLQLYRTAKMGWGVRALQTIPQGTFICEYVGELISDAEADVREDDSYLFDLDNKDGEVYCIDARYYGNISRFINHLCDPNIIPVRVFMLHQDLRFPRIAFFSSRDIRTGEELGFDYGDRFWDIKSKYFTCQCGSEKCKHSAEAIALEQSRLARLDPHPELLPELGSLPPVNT
T1 sequence (Q9H9B1 2-1298 limits assumed): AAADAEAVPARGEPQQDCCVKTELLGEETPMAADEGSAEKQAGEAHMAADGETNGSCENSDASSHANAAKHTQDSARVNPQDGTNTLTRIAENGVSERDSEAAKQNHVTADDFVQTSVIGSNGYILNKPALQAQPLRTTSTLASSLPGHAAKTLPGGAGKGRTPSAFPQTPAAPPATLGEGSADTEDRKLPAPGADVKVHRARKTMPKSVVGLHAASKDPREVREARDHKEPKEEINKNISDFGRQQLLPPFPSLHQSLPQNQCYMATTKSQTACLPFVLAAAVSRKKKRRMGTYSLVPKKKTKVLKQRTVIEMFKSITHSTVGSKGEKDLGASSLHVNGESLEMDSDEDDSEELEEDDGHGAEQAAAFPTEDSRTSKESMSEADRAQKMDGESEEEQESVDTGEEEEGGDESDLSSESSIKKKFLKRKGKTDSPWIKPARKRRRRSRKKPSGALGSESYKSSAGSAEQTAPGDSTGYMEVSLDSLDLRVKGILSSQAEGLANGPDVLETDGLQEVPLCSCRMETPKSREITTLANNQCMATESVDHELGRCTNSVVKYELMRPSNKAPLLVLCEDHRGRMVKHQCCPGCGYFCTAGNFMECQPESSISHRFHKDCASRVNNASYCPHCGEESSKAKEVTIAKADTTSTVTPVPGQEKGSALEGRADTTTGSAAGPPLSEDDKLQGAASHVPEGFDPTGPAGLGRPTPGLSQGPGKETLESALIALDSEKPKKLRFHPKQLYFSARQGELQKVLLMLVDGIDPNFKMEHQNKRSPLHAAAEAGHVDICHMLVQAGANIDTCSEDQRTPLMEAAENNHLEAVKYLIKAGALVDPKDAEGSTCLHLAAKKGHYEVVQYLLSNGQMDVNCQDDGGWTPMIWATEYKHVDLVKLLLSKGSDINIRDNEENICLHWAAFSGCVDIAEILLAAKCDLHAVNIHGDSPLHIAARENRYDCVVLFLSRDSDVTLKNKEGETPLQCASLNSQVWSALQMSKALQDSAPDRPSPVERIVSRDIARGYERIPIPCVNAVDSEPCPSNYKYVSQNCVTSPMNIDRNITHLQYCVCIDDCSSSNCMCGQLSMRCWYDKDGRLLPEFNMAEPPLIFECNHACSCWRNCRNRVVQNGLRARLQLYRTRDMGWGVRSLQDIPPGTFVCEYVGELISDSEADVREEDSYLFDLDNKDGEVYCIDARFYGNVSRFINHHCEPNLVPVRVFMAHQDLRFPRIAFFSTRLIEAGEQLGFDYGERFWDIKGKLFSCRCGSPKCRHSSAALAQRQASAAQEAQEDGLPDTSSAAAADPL

[1] = SILAC ratio 3xMBT vs 3xMBTD355N pull-down, 293T cells, all values in log base 2
[2] = SILAC ratio DMSO relative to UNC0638, pull-down with 3xMBT, all values in log base 2
[3] = SILAC ratio, pull-down 3xMBT vs 3xMBTD355N
[4] = SILAC ratio DMSO/UNC0638 of protein pulled down with 3xMBT

Molecule | 3xMBT/D355N UNC Heavy (3×MBT domain of L3MBTL1; [1]) [log base 2] | 3xMBT/D355N UNC Light (3×MBT domain of L3MBTL1; [1]) [log base 2] | Relative to UNC0638 UNC Heavy (G9a and GLP; [2]) [log base 2] | Relative to UNC0638 UNC Light (G9a and GLP; [2]) [log base 2] | Relative to UNC0638 Average (G9a and GLP; all values in log base 2) [log base 2] | 3xMBT/D355N UNC Heavy (3×MBT domain of L3MBTL1; [3]) [log base 2] | 3xMBT/D355N UNC Light (3×MBT domain of L3MBTL1; [3]) [log base 2] | Relative to UNC0638 UNC Heavy (G9a and GLP; [4]) [log base 2] | Relative to UNC0638 UNC Light (G9a and GLP; [4]) [log base 2] | Relative to UNC0638 Average (G9a and GLP) [log base 2]
B1 | 2.56 | 3.17 | 0.22 | −0.01 | 0.11 | – | – | – | – | –
B2 | 2.23 | 2.79 | 0.18 | 0.03 | 0.10 | – | – | – | – | –
B3 | – | – | – | – | – | 3.31 | 1.73 | 3.21 | −2.20 | 0.50
B4 | 1.71 | 2.05 | 0.13 | 0.07 | 0.10 | – | – | – | – | –
